Usually stoichiometry N stands for the number of molecules, sites or subunits per partner or assembly. The Kd is the free concentration of one partner at which half of the binding sites on the other are occupied at equilibrium, for simple one-to-one binding.

Assay [1] addresses maddinglicin leader peptide construct madL1, Leader 1 (−23 – −1) (Clostridium sp. maddingley). In words: ITC; MadC (200–600 μM) in the syringe, 20 injections of 2 μl into the cell with the leader variant (20–60 μM); 25°C; 50 mM HEPES, 500 mM NaCl, pH 7.5; at least triplicate. A general note: ITC needs no label: the signal is the heat of the interaction.
For assay [2], the target named is maddinglicin leader peptide construct madL2, Leader 2 (−23 − +5) (Clostridium sp. maddingley). The description is as above.
For assay [3], the target named is maddinglicin leader peptide construct madL3, Leader 3 (−23 − +10) (Clostridium sp. maddingley). The assay is described as above.
Assay [4] has as its target prenisin (unmodified) (Lactococcus lactis) (UniProt P13068). The following applies: cited from earlier work.
In assay [5] the target is prenisin (modified) (Lactococcus lactis) (UniProt P13068). The following applies: cited from earlier work.
The target in assay [6] is prenisin (dehydrated) (Lactococcus lactis) (UniProt P13068). The following applies: cited from earlier work.
Assay [7] deals with NisA leader peptide leader peptide (Lactococcus lactis) (UniProt P13068). The experiment in a line: ITC. The following applies: cited from earlier work.
The target of assay [8] is NisA precursor peptide (unmodified) (Lactococcus lactis) (UniProt P13068). The experiment in a line: ITC. The following applies: cited from earlier work.
Assay [9] concerns the target nisin precursor NisA (unmodified) (Lactococcus lactis) (UniProt P13068). The experiment in a line: ITC. Particulars: cited from earlier work.
The target in assay [10] is MadC ∆34 ∆391 (double mutant carrying both deletions, each with an inserted GAG-linker) (Clostridium sp. maddingley). The experiment in a line: SPR. For orientation: Surface plasmon resonance follows binding to a sensor surface in real time, without labels.

NisB, sequence (P20103 whole entry): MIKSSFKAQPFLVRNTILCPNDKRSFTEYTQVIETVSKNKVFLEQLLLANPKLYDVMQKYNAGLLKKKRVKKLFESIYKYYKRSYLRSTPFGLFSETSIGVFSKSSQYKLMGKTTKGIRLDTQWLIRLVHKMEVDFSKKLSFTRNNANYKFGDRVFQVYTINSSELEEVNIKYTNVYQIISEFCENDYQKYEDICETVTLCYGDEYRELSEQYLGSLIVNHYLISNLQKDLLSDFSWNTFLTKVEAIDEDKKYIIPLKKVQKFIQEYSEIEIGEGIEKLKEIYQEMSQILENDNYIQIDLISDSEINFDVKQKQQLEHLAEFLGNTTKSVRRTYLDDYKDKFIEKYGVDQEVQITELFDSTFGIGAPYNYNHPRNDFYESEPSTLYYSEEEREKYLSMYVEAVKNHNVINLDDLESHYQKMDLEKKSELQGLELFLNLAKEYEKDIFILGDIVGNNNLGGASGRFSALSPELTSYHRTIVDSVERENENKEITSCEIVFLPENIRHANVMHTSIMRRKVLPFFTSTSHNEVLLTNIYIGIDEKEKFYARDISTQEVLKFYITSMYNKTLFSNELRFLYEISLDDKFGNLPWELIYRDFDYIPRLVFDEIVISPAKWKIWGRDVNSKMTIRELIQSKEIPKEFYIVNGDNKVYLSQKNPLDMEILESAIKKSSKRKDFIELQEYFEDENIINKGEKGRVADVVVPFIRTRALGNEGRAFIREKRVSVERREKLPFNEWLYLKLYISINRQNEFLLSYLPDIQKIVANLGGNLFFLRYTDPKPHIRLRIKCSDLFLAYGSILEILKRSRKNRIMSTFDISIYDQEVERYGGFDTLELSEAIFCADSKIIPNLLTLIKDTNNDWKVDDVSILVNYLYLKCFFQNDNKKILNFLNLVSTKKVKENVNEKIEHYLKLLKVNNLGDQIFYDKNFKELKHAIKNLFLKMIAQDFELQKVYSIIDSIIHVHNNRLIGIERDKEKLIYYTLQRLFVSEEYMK
NisC, sequence (Q03202 whole entry): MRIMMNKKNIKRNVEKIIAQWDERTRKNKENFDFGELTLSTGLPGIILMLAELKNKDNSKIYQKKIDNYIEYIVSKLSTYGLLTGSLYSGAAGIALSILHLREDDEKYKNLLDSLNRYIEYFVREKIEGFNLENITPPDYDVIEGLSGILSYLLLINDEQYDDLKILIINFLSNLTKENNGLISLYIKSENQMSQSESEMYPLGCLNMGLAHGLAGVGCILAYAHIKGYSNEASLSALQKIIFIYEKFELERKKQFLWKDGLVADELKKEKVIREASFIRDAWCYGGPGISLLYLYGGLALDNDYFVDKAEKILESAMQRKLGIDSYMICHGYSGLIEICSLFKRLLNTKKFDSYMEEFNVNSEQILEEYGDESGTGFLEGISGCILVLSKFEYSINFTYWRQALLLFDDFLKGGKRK
nisin precursor NisA (unmodified) (Lactococcus lactis), sequence (P13068 24-57): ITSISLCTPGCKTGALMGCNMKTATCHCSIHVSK
prenisin (modified) (Lactococcus lactis), sequence (P13068 24-57): as above
prenisin (dehydrated) (Lactococcus lactis), sequence (P13068 24-57): as above
prenisin (unmodified) (Lactococcus lactis), sequence (P13068 24-57): as above
NisA precursor peptide (unmodified) (Lactococcus lactis), sequence (P13068 24-57): as above
NisA leader peptide leader peptide (Lactococcus lactis), sequence (P13068 1-23): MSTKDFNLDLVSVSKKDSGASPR

As to “MadC (lanthionine cyclase of Clostridium sp. maddingley), His6-tag cleaved off (enzyme)”, the dH in assay [1] was -8.76 kcal/mol; in [2], -6.02 kcal/mol; in [3], -7.3 kcal/mol. The stoichiometry N in assay [1] came out at 0.83; in assay [2] it was 0.99; in [3] it was 0.99.

As for NisB (from UniProt P20103), the Kd in [4] is 1000 nM; in [5] it was 10500 nM; in assay [6] it was 300 nM.

As for NisC (from UniProt Q03202), the dissociation constant (Kd) was 3800 nM in [7], 2400 nM in assay [8] and 2000 nM in assay [9].

As for “maddinglicin leader peptide construct madL3, Leader 3 (−23 − +10)”, in [10], the Kd was 35000 nM.

Values taken from publication PMC9889658, “The structure of MadC from Clostridium maddingley reveals new insights into class I lanthipeptide cyclases” (Frontiers in Microbiology, 2023).
